The experiment deals with FGFR1c and βKlotho receptor complex on membrane vesicles of CHO cells overexpressing both (human) (UniProt Q86Z14). As to the kind of experiment: cryo-EM and cryo-ET of a gold-nanoparticle-labelled ligand on membrane vesicles; membrane preparations (~5 mg/ml) incubated with AuE38C-FGF21 (0.03 mg/ml) on ice for 30 min, washed with 1X PBS three times, plunge-frozen; AuNPs and AuNP pairs counted in tomograms.
UniProt Q86Z14, sequence (Q86Z14 whole entry, chain 1 of 2): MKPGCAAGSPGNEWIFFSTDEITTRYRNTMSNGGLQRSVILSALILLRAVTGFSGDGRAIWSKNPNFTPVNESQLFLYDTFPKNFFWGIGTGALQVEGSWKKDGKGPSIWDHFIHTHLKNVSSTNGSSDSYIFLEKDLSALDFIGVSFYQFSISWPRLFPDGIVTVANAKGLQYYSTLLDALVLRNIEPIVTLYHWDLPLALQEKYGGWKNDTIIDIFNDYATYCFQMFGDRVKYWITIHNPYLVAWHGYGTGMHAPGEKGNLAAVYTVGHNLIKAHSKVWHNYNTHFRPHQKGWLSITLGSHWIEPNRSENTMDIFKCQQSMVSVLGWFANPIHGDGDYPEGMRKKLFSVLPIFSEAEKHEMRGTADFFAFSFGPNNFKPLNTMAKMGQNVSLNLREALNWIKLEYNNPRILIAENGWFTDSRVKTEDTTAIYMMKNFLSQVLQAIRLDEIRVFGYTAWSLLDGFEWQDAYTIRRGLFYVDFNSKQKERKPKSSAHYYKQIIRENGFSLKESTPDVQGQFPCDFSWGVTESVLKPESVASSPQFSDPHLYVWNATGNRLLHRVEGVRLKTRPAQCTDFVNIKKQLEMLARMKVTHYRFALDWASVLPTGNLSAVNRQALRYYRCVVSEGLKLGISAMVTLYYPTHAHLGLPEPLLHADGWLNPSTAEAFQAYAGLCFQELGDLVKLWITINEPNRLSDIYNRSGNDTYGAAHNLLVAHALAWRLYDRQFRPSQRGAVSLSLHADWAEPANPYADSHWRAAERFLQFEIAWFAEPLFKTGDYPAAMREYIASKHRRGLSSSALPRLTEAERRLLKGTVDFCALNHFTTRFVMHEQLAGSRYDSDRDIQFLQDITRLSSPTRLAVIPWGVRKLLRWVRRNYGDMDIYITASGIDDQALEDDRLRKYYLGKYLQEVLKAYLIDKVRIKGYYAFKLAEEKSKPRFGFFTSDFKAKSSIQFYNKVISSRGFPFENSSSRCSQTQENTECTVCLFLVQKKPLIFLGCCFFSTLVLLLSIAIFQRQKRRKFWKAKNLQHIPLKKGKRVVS
UniProt Q86Z14, sequence (P11362 22-822, chain 2 of 2, further chain): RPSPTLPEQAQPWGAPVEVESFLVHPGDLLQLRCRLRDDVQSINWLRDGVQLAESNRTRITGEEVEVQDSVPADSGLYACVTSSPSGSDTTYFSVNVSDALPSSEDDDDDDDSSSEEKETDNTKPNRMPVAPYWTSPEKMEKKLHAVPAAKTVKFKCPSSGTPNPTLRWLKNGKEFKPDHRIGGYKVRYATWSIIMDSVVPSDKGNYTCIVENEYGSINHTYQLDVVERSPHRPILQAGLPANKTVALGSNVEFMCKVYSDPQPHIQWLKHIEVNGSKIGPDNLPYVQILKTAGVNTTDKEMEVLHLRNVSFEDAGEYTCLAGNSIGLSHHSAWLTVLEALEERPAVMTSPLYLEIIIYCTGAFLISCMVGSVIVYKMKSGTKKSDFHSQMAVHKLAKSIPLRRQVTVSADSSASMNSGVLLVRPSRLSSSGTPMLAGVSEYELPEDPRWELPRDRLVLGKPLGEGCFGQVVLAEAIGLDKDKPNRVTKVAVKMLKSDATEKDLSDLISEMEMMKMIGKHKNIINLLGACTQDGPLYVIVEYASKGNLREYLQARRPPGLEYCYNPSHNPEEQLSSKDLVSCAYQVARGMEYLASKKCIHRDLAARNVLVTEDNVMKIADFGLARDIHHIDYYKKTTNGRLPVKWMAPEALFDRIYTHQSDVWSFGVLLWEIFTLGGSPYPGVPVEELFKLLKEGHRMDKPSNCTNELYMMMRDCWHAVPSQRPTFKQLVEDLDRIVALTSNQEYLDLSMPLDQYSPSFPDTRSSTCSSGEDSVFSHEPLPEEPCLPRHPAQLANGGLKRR

For “AuNP-FGF21 (E38C-FGF21 conjugated with a 144-gold atom nanoparticle) (ligand)”, the percent of AuNPs in true pairs came to 85% and the stoichiometry N (copies of FGF21 in the receptor complex) came to 2.

(Values after PMC6349402.)
